According to article PMC10925001 (2024):

Target: covalently-linked IL-2/SD-01 complex (human, UniProt P60568 21-153)
Assay: SPR

B1: his-tagged human IL-2Rα (receptor)
chain: ELCDDDPPEIPHATFKAMAYKEGTMLNCECKRGFRRIKSGSLYMLCTGNSSHSSWDNQCQCTSSATRNTTKQVTPQPEEQKERKTTEMQSPMQPVDQASLPGHCREPPPWENEATERIYHFVVGQMVYYQCVQGYRALHRGPAESVCKMTHGKTRWTQPQLICTGEMETSQFPGEEKPQASPEGRPESETSCLVTTTDFQIQTEMAATMETSIFTTEYQ
B1 was tested, and the koff was 0.0048 s⁻¹.
